Data on two proteins can be found in publication PMC4168064, “Cosuppression of the chloroplast localized molecular chaperone HSP90.5 impairs plant development and chloroplast biogenesis in Arabidopsis” (BMC Research Notes, 2014).

This data set concerns the molecule itself. The experiment in a line: SEC; Superdex 200 10/30; running buffer 25 mM Tris-HCl pH 8.0, 100 mM NaCl, 10% glycerol; 600 ug of HSP90.5 62-780 or 200 ug of FLAG-tagged HSP90.5 62-780 loaded; fractions analysed by SDS-PAGE. In general terms: Size exclusion chromatography separates by hydrodynamic size, large species first.

B1: C-terminally FLAG-tagged mature HSP90.5 (HSP90.5 62-780 FLAG), N-terminally His6-tagged (domain or fragment, Arabidopsis thaliana, UniProt Q9SIF2 62-780, looked up)
chain: DAAVAEKETTEEGSGEKFEYQAEVSRLLDLIVHSLYSHKEVFLRELVSNASDALDKLRFLSVTEPSLLGDGGDLEIRIKPDPDNGTITITDTGIGMTKEELIDCLGTIAQSGTSKFLKALKENKDLGADNGLIGQFGVGFYSAFLVAEKVVVSTKSPKSDKQYVWESVADSSSYLIREETDPDNILRRGTQITLYLREDDKYEFAESTRIKNLVKNYSQFVGFPIYTWQEKSRTIEVEEDEPVKEGEEGEPKKKKTTKTEKYWDWELANETKPLWMRNSKEVEKGEYNEFYKKAFNEFLDPLAHTHFTTEGEVEFRSILYIPGMGPLNNEDVTNPKTKNIRLYVKRVFISDDFDGELFPRYLSFVKGVVDSDDLPLNVSREILQESRIVRIMRKRLIRKTFDMIQEISESENKEDYKKFWENFGRFLKLGCIEDTGNHKRITPLLRFFSSKNEEELTSLDDYIENMGENQKAIYYLATDSLKSAKSAPFLEKLIQKDIEVLYLVEPIDEVAIQNLQTYKEKKFVDISKEDLELGDEDEVKDREAKQEFNLLCDWIKQQLGDKVAKVQVSNRLSSSPCVLVSGKFGWSANMERLMKAQALGDTSSLEFMRGRRILEINPDHPIIKDLNAACKNAPESTEATRVVDLLYDTAIISSGFTPDSPAELGNKIYEMMAMAVGGRWGRVEEEEESSTVNEGDDKSGETEVVEPSEVRAESDPWQD
notes: Arabidopsis thaliana chloroplast HSP90.5, predicted mature form, residues 62-780, amplified from pGWB402Ω-HSP90.5FLAG and cloned into pProEXHTb; also called HSP90.5FLAG; FLAG-tagged HSP90.5; source: E. coli, purified (Ni-NTA); not shown: FLAG, C-terminal, kept
In general, stoichiometry N refers to a count of units in the complex or per binding partner. On to B1, for which the “stoichiometry N” value was determined as 2.

B2: mature HSP90.5 (HSP90.5 62-780), N-terminally His6-tagged (domain or fragment, Arabidopsis thaliana, UniProt Q9SIF2 62-780, looked up)
chain: B1 chain
notes: Arabidopsis thaliana chloroplast HSP90.5, predicted mature form, residues D62-D780, cloned from an HSP90.5 cDNA into the p11 vector; also called wild type HSP90.5; AtHSP90.5; source: E. coli, purified (Ni-NTA)
For the protein B2, the “stoichiometry N” value came to 2.
